Several values for one entry are separate records, joined by “and”; a condition that tells them apart may be missing. Equal entries are not always repeated.

Assay [1] deals with carcinoembryonic antigen (CEA) (UniProt P06731). In words: off-rate analysis on the yeast surface at 37 C.
Assay [2] concerns the target T1, carcinoembryonic antigen (CEA) (UniProt P06731 35-685, limits assumed, biotinylated (labelled form); unlabelled CEA (Calbiochem) used as competitor in the off-rate assays).
T1 construct: also called biotinylated-CEA; bio-CEA
T1 sequence (looked up): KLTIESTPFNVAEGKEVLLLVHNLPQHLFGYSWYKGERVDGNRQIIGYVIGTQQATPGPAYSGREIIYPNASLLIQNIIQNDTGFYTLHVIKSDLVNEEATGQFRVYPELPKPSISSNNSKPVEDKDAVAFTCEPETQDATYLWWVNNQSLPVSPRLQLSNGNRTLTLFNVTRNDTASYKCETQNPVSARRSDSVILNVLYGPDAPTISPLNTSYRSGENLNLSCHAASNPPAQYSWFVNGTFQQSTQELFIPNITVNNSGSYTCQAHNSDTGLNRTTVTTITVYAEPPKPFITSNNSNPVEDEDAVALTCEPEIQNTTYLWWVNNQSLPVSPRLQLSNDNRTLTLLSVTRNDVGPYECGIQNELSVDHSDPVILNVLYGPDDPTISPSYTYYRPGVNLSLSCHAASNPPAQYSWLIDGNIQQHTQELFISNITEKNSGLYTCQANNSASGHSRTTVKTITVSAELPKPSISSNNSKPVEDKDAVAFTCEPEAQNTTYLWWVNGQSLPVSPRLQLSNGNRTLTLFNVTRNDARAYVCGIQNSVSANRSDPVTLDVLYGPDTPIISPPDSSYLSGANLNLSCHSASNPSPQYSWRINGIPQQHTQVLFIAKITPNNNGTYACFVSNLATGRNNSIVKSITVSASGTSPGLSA
The assay is described as follows: yeast surface display, equilibrium titration with biotinylated CEA, flow cytometry, 37 C. As to the method: Equilibrium binding constants KD for CEA at 37° C. A) Plot of CEA binding (measured fluorescence) versus CEA concentration. B) CEA binding (normalized for different display levels) versus CEA concentration. […] C) Soluble production of MFE-23 (1) and hMFE (2) at 37° C. for 48 hours. Additional lanes are the scFvs produced at 37° C. and 20° C. for varying amounts of time.

The target of assay [3] is T1, carcinoembryonic antigen (CEA). The assay is described as follows: yeast surface display, off-rate analysis.
Assay [4] shares this target. The assay is described as follows: off-rate analysis on the yeast surface at 37 C.
Assay [5] shares this target. The assay is described as follows: yeast surface display, dissociation of biotinylated CEA in excess unlabelled CEA, flow cytometry. As for the experimental part:
Binding analysis of clones isolated from aggressive hMFE Library sort. A) Equilibrium Titration (Example 3). hMFE (kD±8.5±0.5 nM) (●), m9B (kD=0.8±0.1 nM) (▪), m10B (kD=0.08±0.01 nM) (♦)B). Off-rate. Dissociation rates were measured by first labeling yeast displaying the scFv of interest with biotinylated CEA. Then, the labeled cells were washed and incubated with an excess of nonbiotinylated CEA. Dissociation of labeled CEA from the cells was followed at the single cell level by flow cytometry and streptavidin-PE labeling, as described in Example 3. hMFE (koff=1.2±0.1×10⁻³ s⁻¹) (●), m9B (koff=7.5±0.4×10⁻⁵ s⁻¹) (▪), m10B (koff=6.0±0.4×10⁻⁶ s⁻¹) (♦).

For assay [6] the target is unchanged. In words: yeast surface display, off-rate analysis with biotinylated CEA and excess unlabelled CEA, flow cytometry.
The target is the same in assay [7]. In words: yeast surface display, dissociation of biotinylated CEA in 100-fold excess unlabelled CEA at 37 C, flow cytometry.
For assay [8] the target is unchanged. In words: yeast surface display, equilibrium titration with biotinylated CEA.
Assay [9] has the same target. In words: yeast surface display, equilibrium titration with biotinylated CEA, flow cytometry.

Consider sm3E+T98A (scFv), for which the koff in assay [1] was 1.2e-06 s⁻¹.

B1: MFE-23 scFv (scFv)
scFv: QVKLQQSGAELVRSGTSVKLSCTASGFNIKDSYMHWLRQGPEQGLEWIGWIDPENGDTEYAPKFQGKATFTTDTSSNTAYLQLSSLTSEDTAVYYCNEGTPTGPYYFDYWGQGTTVTVSSGGGGSGGGGSGGGGSENVLTQSPAIMSASPGEKVTITCSASSSVSYMHWFQQKPGTSPKLWIYSTSNLASGVPARFSGSGSGTSYSLTISRMEAEDAATYYCQQRSSYPLTFGAGTKLELKRAA
notes: Tested on the yeast surface as an Aga2p fusion in pCTCON, with an HA tag N-terminal and a c-myc tag C-terminal of the scFv
Consider B1, for which the Kd in assay [2] was 8.3 nM and 7.5 nM.

B2: humanized MFE-23 (hMFE) scFv (scFv)
scFv: PYDVPDYALQASGGGGSGGGGSGGGGSASQVKLEQSGAEVVKPGASVKLSCKASGFNIKDSYMHWLRQGPGQRLEWIGWIDPENGDTEYAPKFQGKATFTTDTSANTAYLGLSSLRPEDTAVYYCNEGTPTGPYYFDYWGQGTLVTVSSGGGGSGGGGSGGGGSENVLTQSPSSMSASVGDRVNIACSASSSVSYMHWFQQKPGKSPKLWIYSTSNLASGVPSRFSGSGSGTDYSLTISSMQPEDAATYYCQQRSSYPLTFGGGTKLEIKAAAGSEQKLISEEDL
notes: also called hMFE-23; resurfaced scFv
B2: the “half-life for binding to CEA” value in [3] came out at 0.167 h. For the same molecule, the dissociation rate constant (koff) in assay [4] is 0.0009 s⁻¹; in assay [5], 0.0012 s⁻¹. Further, the Kd in [2] is 8.3 nM and 8.5 nM.

B3: sm10B (scFv)
chain: PYDVPDYALQASGGGGSGGGGSGGGGSASQVKLEQSGAEVVKPGASVKLSCKASGFNIKDSYMHWLRQGPGQRLEWIGWIDPENGDTEYAPKFQGKATFTTDTSANTAYLGLSSLRPEDTAVYYCNEGTPTGPYYFDYWGQGTLVTVSSGGGGSGGGGSGGGGSENVLTQSPSSMSASVGDRVTIACSASSSVPYMHWFQQKPGKSPKLLIYLTSNLASGVPSRFSGSGSGTDYSLTISSVQPEDAATYYCQQRSSYPLTFGGGTKLEIKAAAGSEQKLISEEDL
Turning to B3, the koff came out at 8.2e-06 s⁻¹ in assay [4] and 8.3e-06 s⁻¹ in assay [6].

B4: m3E (scFv)
chain: PYDVPDYALQASGGGGSGGGGSGGGGSASQVKLEQSGAEVVKPGASVKLSCKASGFNIKDSYMHWLRQGPGQRLEWIGWIDPENGDTEYAPKFQGKATFTTDTSANTAYLGLSSLRPEDTAVYYCNEGTPTGPYYFDYWGQGTLVTVSSGGGGSGGGGSGGGGSENVLTQSPSSMSASVGDRVNIACSASSSVSYMHWLQQKPGKSPKLWIYLTSNLASGVPSRFSGSGSGTDYSLTISSMQPEDAATYYCQQRSSYPLTFGGGTKLEIKAAAGSEQKLISEEDL
On to B4, for which, in [3], the “half-life for binding to CEA” value was about 168 h. This molecule also gave a koff in [7] of 1.2e-06 s⁻¹.

B5: m7E (scFv)
chain: PYDVPDYALQASGGGGSGGGGSGGGGSASQVKLEQSGAEVVKPGASVKLSCKASGFNIKDSYMHWLRQGPGQRLEWIGWIDPENGDTEYAPKFQGKATFTTDTSANTAYLGLSSLRPEDTAVYYCNEGTPTGPYYFDYWGQGTLVTVSSGGGGSGGGGSGGGGSENVLTQSPSSMSASVGDRVNIACNASSSVSYMHWLQQKPGKSPKLWIYLTSNLAPGVPSRFSGSGSGTDYSLTISSMQPEDAATYYCQQRSSYPLTFGGGTKLEIKAAAGSEQKLISEEDL
In [7], B5 showed a koff of 1.8e-06 s⁻¹.

B6: m10B (scFv)
chain: PYDVPDYALQASGGGGSGGGGSGGGGSASQVKLEQSGAEVVKPGASVKLSCKASGFNIKDSYMHWLRQGPGQRLEWIGWIDPENGDTEYAPKFQGKATFTTDTSANTAYLGLSSLRPEDTAVYYCNEGTPTGPYYFDYWGQGTLVTVSSGGGGSGGGGSGGGGSENVLTQSPSSMSASVGDRVNIACSASSSVSYMHWFQQKPGKSPKLWIYLTSNLASGVPSRFSGSGSGTDYSLTISSMQPEDAATYYCQQRSSYPLTFGGGTKLEIKAAAGSEQKLISEEDL
Regarding B6, the “fold improvement in the off-rate over hMFE” value in [3] was determined as 200 fold. Further, in assay [8], the “fold improvement in the affinity over hMFE” value was found to be 100 fold. For the same molecule, the affinity in assay [9], expressed as Kd, was 0.08 nM. In [5], this molecule yielded a koff of 6e-06 s⁻¹.

B7: sm9B (scFv)
chain: PYDVPDYALQASGGGGSGGGGSGGGGSASQVKLEQSGAEVVKPGASVKLSCKASGFNIKDSYMHWLRQGPGQRLEWIGWIDPENGDTEYAPKFQGKATFTTDTSANTAYLGLSSLRPEDTAVYYCNEGTPTGPYYFDYWGQGTLVTVSSGGGGSGGGGSGGGGSENVLTQSPSSMSASVGDRVTIACSASSSVPYMHWLQQKPGKSPKLLIYSTSNLASGVPSRFSGSGSGTDYSLTISSVQPEDAATYYCQQRSSYPLTFGGGTKLEIKAAAGSEQKLISEEDL
Turning to B7, the koff in assay [6] was 0.00011 s⁻¹.

B8: m9B (scFv)
chain: PYDVPDYALQASGGGGSGGGGSGGGGSASQVKLEQSGAEVVKPGASVKLSCKASGFNIKDSYMHWLRQGPGQRLEWIGWIDPENGDTEYAPKFQGKATFTTDTSANTAYLGLSSLRPEDTAVYYCNEGTPTGPYYFDYWGQGTLVTVSSGGGGSGGGGSGGGGSENVLTQSPSSMSASVGDRVNIACSASSSVSYMHWLQQKPGKSPKLWIYSTSNLASGVPSRFSGSGSGTDYSLTISSMQPEDAATYYCQQRSSYPLTFGGGTKLEIKAAAGSEQKLISEEDL
Regarding B8, the “fold improvement in the off-rate over hMFE” value in assay [3] stood at 16 fold. Further, in assay [8], the “fold improvement in the dissociation constant over hMFE” value came to 10 fold. The molecule also showed a Kd in [9] of 0.8 nM. The same molecule registered a koff in [5] of 7.5e-05 s⁻¹.

B9: m8E (scFv)
chain: PYDVPDYALQASGGGGSGGGGSGGGGSASQVKLEQSGAEVVKPGASVKLSCKASGFNIKDSYMHWLRQGPGQRLEWIGWIDPQNGDTEYAPKFQGKATFTTDTSANTAYLGLSSLRPEDTAVYYCNEGTPAGPYYFDYWGQGTLVTVSSGGGGSGGGGSGGGGSENVLTQSPSSMSASVGDRVNIACSASSSVSYMHWFQQKPGKSPKLWIYLTSNLAPGVPSRFSGSGSGTDYSLTISSMQPEDAATYYCQQRSSYPLTFGGGTKLEIKAAAGSEQKLISEEDL
The molecule B9 registered a koff in assay [7] of 2.6e-06 s⁻¹.

B10: hMFE+T98A (scFv)
chain: PYDVPDYALQASGGGGSGGGGSGGGGSASQVKLEQSGAEVVKPGASVKLSCKASGFNIKDSYMHWLRQGPGQRLEWIGWIDPENGDTEYAPKFQGKATFTTDTSANTAYLGLSSLRPEDTAVYYCNEGTPAGPYYFDYWGQGTLVTVSSGGGGSGGGGSGGGGSENVLTQSPSSMSASVGDRVNIACSASSSVSYMHWFQQKPGKSPKLWIYSTSNLASGVPSRFSGSGSGTDYSLTISSMQPEDAATYYCQQRSSYPLTFGGGTKLEIKAAAGSEQKLISEEDL
For B10, in [4], the “fold improvement in off-rate over hMFE” value stood at 1.5 fold and the koff was determined as 0.0006 s⁻¹.

B11: sm10B+T98A (scFv)
chain: PYDVPDYALQASGGGGSGGGGSGGGGSASQVKLEQSGAEVVKPGASVKLSCKASGFNIKDSYMHWLRQGPGQRLEWIGWIDPENGDTEYAPKFQGKATFTTDTSANTAYLGLSSLRPEDTAVYYCNEGTPAGPYYFDYWGQGTLVTVSSGGGGSGGGGSGGGGSENVLTQSPSSMSASVGDRVTIACSASSSVPYMHWFQQKPGKSPKLLIYLTSNLASGVPSRFSGSGSGTDYSLTISSVQPEDAATYYCQQRSSYPLTFGGGTKLEIKAAAGSEQKLISEEDL
Take B11: in [4], the koff came out at 6.8e-06 s⁻¹.

Source of the values: patent US20050147614A1 (CANCER RESEARCH TECHNOLOGY, published 2005).
